Assay results: patent US20090226458A1

Molecular target: Netrin-1-FlagM2 (recombinant netrin-1, Apotech)
Assay: ELISA: DCC-5Fbn 100 ng coated, netrin-1 0 to 800 ng, IL3-R values subtracted

## DCC-5Fbn (recombinant soluble fifth fibronectin type III domain of DCC) (from UniProt P43146 846-942) (receptor)
  Kd: 5 nM
